Experimental data as given in EP3388527.

Target: T1, GP-1 (human, UniProt Q14242)
T1 chain: QATEYEYLDYDFLPETEPP
Test: SPR

B1: SelK1 (antibody, V domains shown)
VH: QVQLQQSGPGLVKPSQTLSLTCAISGDSVSSNIAAWHWIRLSPSRGLEWLGRTYYRRSKWNYDYALSVKSRININPDTSKNLFSLQLNSVTPEDTAVYYCTRGGGRAHSAWGQGTLVTVSS
VL: EIVLTQSPGTLSVSPGERATLSCRASQSVSRSHLAWYQQKPGQAPRLLIFGASSRATGIPDRFSGSGSGTDFTLTISRLEPEDFAVYYCQQYGRPGVTFGQGTKVEIK
B1: no binding.
